# B1: 5J8 (antibody, V domains shown)
# VH: EVQLVESGPGLVKPSDILSLTCAVSGYSISSNYYWGWIRQPPGKGLEWIGSIYHSGSTYYKPSLESRLGISVDTSKNQFSLKLSFVSAADTAVYYCARHVRSGYPDTAYYFDKWGQGTLVTVSS
# VL: SYVLTQPPSVSVAPGETARISCGGNNIGTKVLHWYQQTPGQAPVLVVYDDSDRPSGIPERFSGSNSGNTATLTISRVEVGDEADYYCQVWDISTDQAVFGGGTKLTVL
# B2: 32D6 (antibody, V domains shown)
# VH: QVQLQESGPGLVKPSETLSLTCTVSGGSVNTGSYYWSWIRQPPGKGLEWIAYSSVSGTSNYNPSLKSRVTLTVDTSKNQFSLSVRSVTAADTAVYFCARLNYDILTGYYFFDFWGQGTLVIVSS
# VL: QVELTQSPSASASLGTSVKLTCTLSSGHSTYAIAWHQQRPGKGPRYLMNLSSGGRHTRGDGIPDRFSGSSSGADRYLIISSLQSEDEADYYCQTWDAGMVFGGGTKLTVL
# Target: HA1-trimer (influenza A virus H1N1 …)
# Assay: SPR
# Conditions: both partners purified
row,Binder,Kd
1,B1,0.0531 nM
2,B2,0.0445 nM

# — paper PMC9530591 (eBioMedicine, 2022)
